{"source": "paper PMC5511352", "about": "“Structural insights into the mycobacteria transcription initiation complex from analysis of X-ray crystal structures”", "binders": {"B1": {"name": "us-fork promoter fragment (mixed)", "DNA 1": "GCTTGACAAAAGTGTTAAATTGTGCTATACT", "DNA 2": "AGCACAATTTAACACTTTTGTCAAGC"}}, "molecular_target": "T1, RNAP alpha subunit C-terminal domain (alphaCTD, symmetry-related) (Mycobacterium smegmatis (mc2155), UniProt A0QSL8 251-350)", "T1 sequence": "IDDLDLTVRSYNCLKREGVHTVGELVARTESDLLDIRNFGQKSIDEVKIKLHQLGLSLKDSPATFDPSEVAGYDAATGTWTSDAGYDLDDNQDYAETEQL", "experiment": "X-ray crystallography (2.76 A); alphaCTD of symmetry-related complex; A/T-rich region -29 to -24; Crystallization: 0.1 M Bis-Tris pH 6.0, 0.2 M Li2SO4 (printed LiSO4), 16% PEG 3350, 2.5% ethylene glycol, 22 C; protein in 20 mM Tris-HCl pH 8, 100 mM K-glutamate, 10 mM MgCl2, 1 mM DTT", "settings": "protein: native; upstream fork (ds/ss junction)", "data": [{"binder": "B1", "values": [{"measurement": "binding result", "result": "binds"}]}]}
